Measurements as given in IntAct's records for PubMed 25910212.

B1: Glycogen phosphorylase, liver form (Homo sapiens), P06737 (parent)
chain: MAKPLTDQEKRRQISIRGIVGVENVAELKKSFNRHLHFTLVKDRNVATTRDYYFALAHTVRDHLVGRWIRTQQHYYDKCPKRVYYLSLEFYMGRTLQNTMINLGLQNACDEAIYQLGLDIEELEEIEEDAGLGNGGLGRLAACFLDSMATLGLAAYGYGIRYEYGIFNQKIRDGWQVEEADDWLRYGNPWEKSRPEFMLPVHFYGKVEHTNTGTKWIDTQVVLALPYDTPVPGYMNNTVNTMRLWSARAPNDFNLRDFNVGDYIQAVLDRNLAENISRVLYPNDNFFEGKELRLKQEYFVVAATLQDIIRRFKASKFGSTRGAGTVFDAFPDQVAIQLNDTHPALAIPELMRIFVDIEKLPWSKAWELTQKTFAYTNHTVLPEALERWPVDLVEKLLPRHLEIIYEINQKHLDRIVALFPKDVDRLRRMSLIEEEGSKRINMAHLCIVGSHAVNGVAKIHSDIVKTKVFKDFSELEPDKFQNKTNGITPRRWLLLCNPGLAELIAEKIGEDYVKDLSQLTKLHSFLGDDVFLRELAKVKQENKLKFSQFLETEYKVKINPSSMFDVQVKRIHEYKRQLLNCLHVITMYNRIKKDPKKLFVPRTVIIGGKAAPGYHMAKMIIKLITSVADVVNNDPMVGSKLKVIFLENYRVSLAEKVIPATDLSEQISTAGTEASGTGNMKFMLNGALTIGTMDGANVEMAEEAGEENLFIFGMRIDDVAALDKKGYEAKEYYEALPELKLVIDQIDNGFFSPKQPDLFKDIINMLFYHDRFKVFADYEAYVKCQDKVSQLYMNPKAWNTMVLKNIAASGKFSSDRTIKEYAQNIWNVEPSDLKISLSNESNKVNGN
partner: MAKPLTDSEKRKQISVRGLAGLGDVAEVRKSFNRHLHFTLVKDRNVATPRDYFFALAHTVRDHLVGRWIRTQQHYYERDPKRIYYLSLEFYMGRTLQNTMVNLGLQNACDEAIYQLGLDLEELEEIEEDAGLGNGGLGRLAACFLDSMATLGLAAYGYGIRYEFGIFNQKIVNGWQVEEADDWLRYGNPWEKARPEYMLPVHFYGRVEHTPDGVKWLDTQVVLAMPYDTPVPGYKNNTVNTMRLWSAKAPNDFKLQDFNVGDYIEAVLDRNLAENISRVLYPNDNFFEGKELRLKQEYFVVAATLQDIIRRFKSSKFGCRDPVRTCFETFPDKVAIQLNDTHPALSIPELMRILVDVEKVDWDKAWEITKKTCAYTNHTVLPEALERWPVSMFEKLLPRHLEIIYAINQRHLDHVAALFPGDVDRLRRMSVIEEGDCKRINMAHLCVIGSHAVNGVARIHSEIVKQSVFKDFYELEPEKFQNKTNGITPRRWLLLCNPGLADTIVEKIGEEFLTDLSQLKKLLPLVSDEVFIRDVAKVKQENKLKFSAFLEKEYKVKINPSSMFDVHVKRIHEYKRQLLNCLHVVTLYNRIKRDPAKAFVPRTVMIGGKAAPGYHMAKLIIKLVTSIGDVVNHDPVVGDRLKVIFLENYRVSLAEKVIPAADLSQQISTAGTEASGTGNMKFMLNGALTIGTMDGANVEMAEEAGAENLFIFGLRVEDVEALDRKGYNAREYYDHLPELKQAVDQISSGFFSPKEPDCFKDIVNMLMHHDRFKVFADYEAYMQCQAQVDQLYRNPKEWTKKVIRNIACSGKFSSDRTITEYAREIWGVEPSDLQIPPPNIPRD
B2: Estrogen receptor beta (Homo sapiens), Q92731-3 (parent)
chain: MDIKNSPSSLNSPSSYNCSQSILPLEHGSIYIPSSYVDSHHEYPAMTFYSPAVMNYSIPSNVTNLEGGPGRQTTSPNVLWPTPGHLSPLVVHRQLSHLYAEPQKSPWCEARSLEHTLPVNRETLKRKVSGNRCASPVTGPGSKRDAHFCAVCSDYASGYHYGVWSCEGCKAFFKRSIQGHNDYICPATNQCTIDKNRRKSCQACRLRKCYEVGMVKCGSRRERCGYRLVRRQRSADEQLHCAGKAKRSGGHAPRVRELLLDALSPEQLVLTLLEAEPPHVLISRPSAPFTEASMMMSLTKLADKELVHMISWAKKIPGMRGNA
B3: Chorion-specific transcription factor GCMb (Homo sapiens), O75603 (parent)
chain: MPAAAVQEAVGVCSYGMQLSWDINDPQMPQELALFDQFREWPDGYVRFIYSSDEKKAQRHLSGWAMRNTNNHNGHILKKSCLGVVVCTQACTLPDGSRLQLRPAICDKARLKQQKKACPNCHSALELIPCRGHSGYPVTNFWRLDGNAIFFQAKGVHDHPRPESKSETEARRSAIKRQMASFYQPQKKRIRESEAEENQDSSGHFSNIPPLENPEDFDIVTETSFPIPGQPCPSFPKSDVYKATCDLATFQGDKMPPFQKYSSPRIYLPRPPCSYELANPGYTNSSPYPTLYKDSTSIPNDTDWVHLNTLQCNVNSYSSYERSFDFTNKQHGWKPALGKPSLVERTNHGQFQAMATRPYYNPELPCRYLTTPPPGAPALQTVITTTTKVSYQAYQPPAMKYSDSVREVKSLSSCNYAPEDTGMSVYPEPWGPPVTVTRAASPSGPPPMKIAGDCRAIRPTVAIPHEPVSSRTDEAETWDVCLSGLGSAVSYSDRVGPFFTYNNEDF
B4: Hypoxanthine-guanine phosphoribosyltransferase (Homo sapiens), P00492 (parent)
chain: MATRSPGVVISDDEPGYDLDLFCIPNHYAEDLERVFIPHGLIMDRTERLARDVMKEMGGHHIVALCVLKGGYKFFADLLDYIKALNRNSDRSIPMTVDFIRLKSYCNDQSTGDIKVIGGDDLSTLTGKNVLIVEDIIDTGKTMQTLLSLVRQYNPKMVKVASLLVKRTPRSVGYKPDFVGFEIPDKFVVGYALDYNEYFRDLNHVCVISETGKAKYKA
partner: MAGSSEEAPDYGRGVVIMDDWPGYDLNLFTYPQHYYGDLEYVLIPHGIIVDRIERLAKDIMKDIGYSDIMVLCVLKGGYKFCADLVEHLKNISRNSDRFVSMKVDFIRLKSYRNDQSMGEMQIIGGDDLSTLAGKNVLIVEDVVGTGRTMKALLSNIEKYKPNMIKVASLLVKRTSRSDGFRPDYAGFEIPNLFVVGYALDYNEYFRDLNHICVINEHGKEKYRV
B5: U4/U6 small nuclear ribonucleoprotein Prp31 (Homo sapiens), Q8WWY3 (parent)
chain: MSLADELLADLEEAAEEEEGGSYGEEEEEPAIEDVQEETQLDLSGDSVKTIAKLWDSKMFAEIMMKIEEYISKQAKASEVMGPVEAAPEYRVIVDANNLTVEIENELNIIHKFIRDKYSKRFPELESLVPNALDYIRTVKELGNSLDKCKNNENLQQILTNATIMVVSVTASTTQGQQLSEEELERLEEACDMALELNASKHRIYEYVESRMSFIAPNLSIIIGASTAAKIMGVAGGLTNLSKMPACNIMLLGAQRKTLSGFSSTSVLPHTGYIYHSDIVQSLPPDLRRKAARLVAAKCTLAARVDSFHESTEGKVGYELKDEIERKFDKWQEPPPVKQVKPLPAPLDGQRKKRGGRRYRKMKERLGLTEIRKQANRMSFGEIEEDAYQEDLGFSLGHLGKSGSGRVRQTQVNEATKARISKTLQRTLQKQSVVYGGKSTIRDRSSGTASSVAFTPLQGLEIVNPQAAEKKVAEANQKYFSSMAEFLKVKGEKSGLMST
partner: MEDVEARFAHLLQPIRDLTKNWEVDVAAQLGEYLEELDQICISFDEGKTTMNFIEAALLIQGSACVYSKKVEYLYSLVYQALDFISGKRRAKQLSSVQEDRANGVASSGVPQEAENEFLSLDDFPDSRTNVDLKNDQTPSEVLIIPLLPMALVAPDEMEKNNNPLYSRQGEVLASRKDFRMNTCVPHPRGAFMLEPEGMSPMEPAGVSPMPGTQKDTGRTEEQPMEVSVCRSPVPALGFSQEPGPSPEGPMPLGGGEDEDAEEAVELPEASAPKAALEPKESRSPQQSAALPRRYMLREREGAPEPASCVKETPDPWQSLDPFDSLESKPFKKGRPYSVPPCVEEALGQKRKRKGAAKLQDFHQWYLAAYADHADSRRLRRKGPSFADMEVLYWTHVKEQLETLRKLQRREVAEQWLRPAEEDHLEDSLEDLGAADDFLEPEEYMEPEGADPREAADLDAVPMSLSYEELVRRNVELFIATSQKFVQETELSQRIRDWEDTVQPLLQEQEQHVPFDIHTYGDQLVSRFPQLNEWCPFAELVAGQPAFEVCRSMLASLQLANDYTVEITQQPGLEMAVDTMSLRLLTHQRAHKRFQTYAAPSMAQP
B6: U4/U6 small nuclear ribonucleoprotein Prp31 (Homo sapiens), Q8WWY3 (parent)
chain: B5 chain
partner: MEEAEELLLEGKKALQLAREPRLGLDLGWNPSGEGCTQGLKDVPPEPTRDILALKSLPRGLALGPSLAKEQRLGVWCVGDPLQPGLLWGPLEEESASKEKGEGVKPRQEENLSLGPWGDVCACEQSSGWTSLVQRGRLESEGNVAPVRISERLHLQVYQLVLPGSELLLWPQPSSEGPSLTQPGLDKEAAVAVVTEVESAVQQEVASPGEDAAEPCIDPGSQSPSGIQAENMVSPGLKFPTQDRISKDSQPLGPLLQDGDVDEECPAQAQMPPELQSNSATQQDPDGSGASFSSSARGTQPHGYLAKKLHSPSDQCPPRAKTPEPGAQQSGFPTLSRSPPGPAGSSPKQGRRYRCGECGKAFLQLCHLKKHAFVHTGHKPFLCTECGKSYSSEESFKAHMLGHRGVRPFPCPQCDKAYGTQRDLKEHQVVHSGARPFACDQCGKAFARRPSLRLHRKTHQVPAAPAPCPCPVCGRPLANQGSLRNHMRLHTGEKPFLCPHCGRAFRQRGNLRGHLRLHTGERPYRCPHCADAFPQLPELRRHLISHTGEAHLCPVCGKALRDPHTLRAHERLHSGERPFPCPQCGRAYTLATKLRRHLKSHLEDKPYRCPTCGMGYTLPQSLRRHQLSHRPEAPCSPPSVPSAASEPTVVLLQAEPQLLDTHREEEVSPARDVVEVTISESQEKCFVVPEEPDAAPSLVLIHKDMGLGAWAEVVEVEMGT
B7: Adiponectin (Homo sapiens), Q15848 (parent)
chain: MLLLGAVLLLLALPGHDQETTTQGPGVLLPLPKGACTGWMAGIPGHPGHNGAPGRDGRDGTPGEKGEKGDPGLIGPKGDIGETGVPGAEGPRGFPGIQGRKGEPGEGAYVYRSAFSVGLETYVTIPNMPIRFTKIFYNQQNHYDGSTGKFHCNIPGLYYFAYHITVYMKDVKVSLFKKDKAMLFTYDQYQENNVDQASGSVLLHLEVGDQVWLQVYGEGERNGLYADNDNDSTFTGFLLYHDTN

Variants of: B1
Conditions: with pygb_human PYGB

Row | effect of a mutation on the interaction | Variant
1 | with no effect | N339S

Variants of: B2
Conditions: with tfcp2_human TFCP2, Q12800
Sequence of tfcp2_human TFCP2, Q12800 (Q12800 whole entry): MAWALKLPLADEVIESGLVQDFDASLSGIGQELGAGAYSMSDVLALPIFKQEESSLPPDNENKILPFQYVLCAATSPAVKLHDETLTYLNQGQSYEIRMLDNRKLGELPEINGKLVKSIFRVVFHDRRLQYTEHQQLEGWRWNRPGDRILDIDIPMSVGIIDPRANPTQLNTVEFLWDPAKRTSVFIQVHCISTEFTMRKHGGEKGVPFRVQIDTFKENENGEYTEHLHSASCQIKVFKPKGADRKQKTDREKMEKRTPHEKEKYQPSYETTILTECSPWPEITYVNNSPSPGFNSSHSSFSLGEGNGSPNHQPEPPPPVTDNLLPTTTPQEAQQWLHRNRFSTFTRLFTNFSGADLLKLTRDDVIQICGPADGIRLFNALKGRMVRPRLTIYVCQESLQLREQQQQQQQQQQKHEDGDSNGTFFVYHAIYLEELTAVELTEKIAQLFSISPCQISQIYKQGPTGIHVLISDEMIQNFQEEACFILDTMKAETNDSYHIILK

Row | effect of a mutation on the interaction | Variant
2 | causing an interaction | F289L

Variants of: B2
Conditions: with mdfi_human MDFI

Row | effect of a mutation on the interaction | Variant
3 | causing an interaction | F289L

Variants of: B3
Conditions: with crx_human CRX

Row | effect of a mutation on the interaction | Variant
4 | with no effect | G203S
5 | with no effect | R47L
6 | with no effect | G63S

Variants of: B3
Conditions: with RBPMS

Row | effect of a mutation on the interaction | Variant
7 | with no effect | G203S
8 | with no effect | R47L
9 | disrupting interaction strength | G63S

Variants of: B4
Conditions: with prdc1_human PRTFDC1, Q9NRG1

Row | effect of a mutation on the interaction | Variant
10 | disrupting interaction strength | D194H

Variants of: B5
Conditions: with cndh2_human NCAPH2, Q6IBW4

Row | effect of a mutation on the interaction | Variant
11 | with no effect | L107V

Variants of: B6
Conditions: with zn408_human ZNF408, Q9H9D4

Row | effect of a mutation on the interaction | Variant
12 | with no effect | L107V

Variants of: B7
Conditions: with bni3l_human BNIP3L

Row | effect of a mutation on the interaction | Variant
13 | with no effect | Y111H

Variants of: B7
Conditions: with sgta_human SGTA

Row | effect of a mutation on the interaction | Variant
14 | with no effect | Y111H
